Assay results reported in the supplement of paper PMC10724198.
± gives the standard deviation of the averaged measurements.

Test system: Saccharomyces cerevisiae
Test: protein stability index of tFT-peptide fusion (C-terminal peptide) (PSI (0-1 scale)); higher = more stable (slower turnover)
Settings: temperature: 30 C
Experimental: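 MPS profiling in S. cerevisiae of the yeast C-terminome library: the last 12 aa of each annotated ORF are fused to the C-terminus of a sfGFP-mCherry timer, after a GGGS linker. Cells are FACS-sorted into 8 mCherry/sfGFP bins and deep-sequenced. PSI runs from 0 (unstable) to 1 (stable); wild type and das1Δ backgrounds, two technical replicates each.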

[1] = genetic background: das1 deletion

Sequence	protein stability index [1]	protein stability index (genetic background: wild type)
DYKKFIEDVLRQ [MLC1 C-terminal 12 aa]	0.696 ± 0.033	0.702 ± 0.04
KRRPYVRAHAKW [YGR051C C-terminal 12 aa]	0.7089 ± 0.0043	0.698 ± 0.05
GLLLPLCHRKRS [YOR012W C-terminal 12 aa]	0.706 ± 0.015	0.411 ± 0.039
SVLQRRQSTQNS [HAL1 C-terminal 12 aa]	0.719 ± 0.0076	0.691 ± 0.06
LSQRAWATKKPI [YJL028W C-terminal 12 aa]	0.696 ± 0.012	0.732 ± 0.077
APAEQTQGEPTK [BMH2 C-terminal 12 aa]	0.71 ± 0.013	0.677 ± 0.012
QELISLIDVINQ [RNH203 C-terminal 12 aa]	0.7225 ± 0.005	0.739 ± 0.035
YSDTIWNVEPVT [GPH1 C-terminal 12 aa]	0.729 ± 0.015	0.73 ± 0.018
IHFGETSNYSFD [SMC5 C-terminal 12 aa]	0.722 ± 0.02	0.698 ± 0.017
CTFIYFLYFSLF [YBL070C C-terminal 12 aa]	0.325 ± 0.0072	0.288 ± 0.03
RTLTTGNYHGLA [SYP1 C-terminal 12 aa]	0.6833 ± 0.0056	0.6781 ± 0.0046
ERNKKSRPPIYK [ARL3 C-terminal 12 aa]	0.734 ± 0.03	0.735 ± 0.09
EAQLTRKQAPPV [COS9 C-terminal 12 aa]	0.7035 ± 0.004	0.699 ± 0.015
KDSAQSLDDLLM [SFM1 C-terminal 12 aa]	0.7007 ± 0.0043	0.6969 ± 0.0046
NTMGKSGRHNIT [YOR282W C-terminal 12 aa]	0.6851 ± 0.0044	0.685 ± 0.032
KVSPADAAKKAL [RPS26A C-terminal 12 aa]	0.704 ± 0.0096	0.718 ± 0.02
TREPISYKLDIQ [ERO1 C-terminal 12 aa]	0.678 ± 0.044	0.67 ± 0.024
MSLRKYVSVCSM [YHL006W-A C-terminal 12 aa]	0.5 ± 0.012	0.513 ± 0.0063
HKNHSVPRLIQV [YCL068C C-terminal 12 aa]	0.6194 ± 0.0049	0.654 ± 0.048
DILGSLLAKKRK [MRE11 C-terminal 12 aa]	0.681 ± 0.023	0.672 ± 0.022
KYRRQVRYTQRT [YGL052W C-terminal 12 aa]	0.708 ± 0.0075	0.698 ± 0.013

Sequence	protein stability index [1]	protein stability index (genetic background: wild type)
QAADKRIDRNNP [SRD1 C-terminal 12 aa]	0.7185 ± 0.0037	0.702 ± 0.022
IFLMKKAYDLQI [EFM1 C-terminal 12 aa]	0.675 ± 0.011	0.657 ± 0.02
KTGKKNKVAKKN [SRP14 C-terminal 12 aa]	0.682 ± 0.0078	0.692 ± 0.021
CIPLINYHLRKS [CBS1 C-terminal 12 aa]	0.709 ± 0.022	0.673 ± 0.023
SGKRGVGKTDFR [NOG1 C-terminal 12 aa]	0.716 ± 0.00084	0.6901 ± 0.00098
DTCKSVLYCSTS [YMR193C-A C-terminal 12 aa]	0.694 ± 0.022	0.65 ± 0.0067
PVSESSSPNSWP [YDR230W C-terminal 12 aa]	0.768 ± 0.012	0.706 ± 0.02
VFPDVLFTFLFS [YEL010W C-terminal 12 aa]	0.70228 ± 0.00029	0.713 ± 0.027
YKLGPGEDTATK [DPL1 C-terminal 12 aa]	0.707 ± 0.023	0.702 ± 0.032
LSDLRAWTLKVA [YDR491C C-terminal 12 aa]	0.7058 ± 0.0027	0.329 ± 0.0064
QPINLDSISDDL [DRE2 C-terminal 12 aa]	0.7068 ± 0.0039	0.766 ± 0.12
QSQYSSRFVELD [MCO12 C-terminal 12 aa]	0.691 ± 0.015	0.6892 ± 0.0068
HSRASVQSHPQH [DAL80 C-terminal 12 aa]	0.7271 ± 0.0023	0.699 ± 0.03
KEVPLDFDPDRN [ANP1 C-terminal 12 aa]	0.683 ± 0.037	0.688 ± 0.022
KCLDLLKTELGE [POC4 C-terminal 12 aa]	0.699 ± 0.018	0.6935 ± 0.0043
RLKSSVICSGTS [YLR399W-A C-terminal 12 aa]	0.68237 ± 6.9e-05	0.664 ± 0.015
NPVGVPNDDHHH [COX4 C-terminal 12 aa]	0.724 ± 0.0031	0.668 ± 0.022
KVRTQSKQPQEE [SAW1 C-terminal 12 aa]	0.682 ± 0.021	0.673 ± 0.026
LSDYLSHDFASC [YNL040W C-terminal 12 aa]	0.688 ± 0.011	0.694 ± 0.04
AYLLFYTIRQVN [UBP8 C-terminal 12 aa]	0.366 ± 0.012	0.14 ± 0.011
